This assay addresses Protease Mixtures. As to the kind of experiment: cell-based or functional assay.

B1: Variant A2M, bait region SEQ ID NO 133, P01023 24-1474 (protein)
chain: SVSGKPQYMVLVPSLLHTETTEKGCVLLSYLNETVTVSASLESVRGNRSLFTDLEAENDVLHCVAFAVPKSSSNEEVMFLTVQVKGPTQEFKKRTTVMVKNEDSLVFVQTDKSIYKPGQTVKFRVVSMDENFHPLNELIPLVYIQDPKGNRIAQWQSFQLEGGLKQFSFPLSSEPFQGSYKVVVQKKSGGRTEHPFTVEEFVLPKFEVQVTVPKIITILEEEMNVSVCGLYTYGKPVPGHVTVSICRKYSDASDCHGEDSQAFCEKFSGQLNSHGCFYQQVKTKVFQLKRKEYEMKLHTEAQIQEEGTVVELTGRQSSEITRTITKLSFVKVDSHFRQGIPFFGQVRLVDGKGVPIPNKVIFIRGNEANYYSNATTDEHGLVQFSINTTNVMGTSLTVRVNYKDRSPCYGYQWVSEEHEEAHHTAYLVFSPSKSFVHLEPMSHELPCGHTQTVQAHYILNGGTLLGLKKLSFYYLIMAKGGIVRTGTHGLLVKQEDMKGHFSISIPVKSDIAPVARLLIYAVLPTGDVIGDSAKYDVENCLANKVDLSFSPSQSLPASHAHLRVTAAPQSVCALRAVDQSVLLMKPDAELSASSVYNLLPEKDLTGFPGPLNDQDDEDCINRHNVYINGITYTPVSSTNEKDMYSFLEDMGLKAFTNSKIRKPKMCPQLEQYEMHGPIPENFFGVEGEGEGESELEGRGSSEDLVVQIVEEPHTKLRKYFPETWIWDLVVVNSAGVAEVGVTVPDTITEWKAGAFCLSEDAGLGISSTASLRAFQPFFVELTMPYSVIRGEAFTLKATVLNYLPKCIRVSVQLEASPAFLAVPVEKEQAPHCICANGRQTVSWAVTPKSLGNVNFTVSAEALESQELCGTEVPSVPEHGRKDTVIKPLLVEPEGLEKETTFNSLLCPSGGEVSEELSLKLPPNVVEESARASVSVLGDILGSAMQNTQNLLQMPYGCGEQNMVLFAPNIYVLDYLNETQQLTPEIKSKAIGYLNTGYQRQLNYKHYDGSYSTFGERYGRNQGNTWLTAFVLKTFAQARAYIFIDEAHITQALIWLSQRQKDNGCFRSSGSLLNNAIKGGVEDEVTLSAYITIALLEIPLTVTHPVVRNALFCLESAWKTAQEGDHGSHVYTKALLAYAFALAGNQDKRKEVLKSLNEEAVKKDNSVHWERPQKPKAPVGHFYEPQAPSAEVEMTSYVLLAYLTAQPAPTSEDLTSATNIVKWITKQQNAQGGFSSTQDTVVALHALSKYGAATFTRTGKAAQVTIQSSGTFSSKFQVDNNNRLLLQQVSLPELPGEYSMKVTGEGCVYLQTSLKYNILPEKEEFPFALGVQTLPQTCDEPKAHTSFQISLSVSYTGSRSASNMAIVDVKMVSGFIPLKPTVKMLERSNHVSRTEVSSNHVLIYLDKVSNQTLSLFFTVLQDVPVRDLKPAIVKVYDYYETDEFAIAEYNAPCSKDLGNADYKDDDDKGASHHHHHH
As to B1, the Protease Inhibition (% of WT); Protease Mixtures, IGD Substrate is 75 % of WT.

B2: Variant A2M, bait region SEQ ID NO 134, P01023 24-1474 (protein)
chain: SVSGKPQYMVLVPSLLHTETTEKGCVLLSYLNETVTVSASLESVRGNRSLFTDLEAENDVLHCVAFAVPKSSSNEEVMFLTVQVKGPTQEFKKRTTVMVKNEDSLVFVQTDKSIYKPGQTVKFRVVSMDENFHPLNELIPLVYIQDPKGNRIAQWQSFQLEGGLKQFSFPLSSEPFQGSYKVVVQKKSGGRTEHPFTVEEFVLPKFEVQVTVPKIITILEEEMNVSVCGLYTYGKPVPGHVTVSICRKYSDASDCHGEDSQAFCEKFSGQLNSHGCFYQQVKTKVFQLKRKEYEMKLHTEAQIQEEGTVVELTGRQSSEITRTITKLSFVKVDSHFRQGIPFFGQVRLVDGKGVPIPNKVIFIRGNEANYYSNATTDEHGLVQFSINTTNVMGTSLTVRVNYKDRSPCYGYQWVSEEHEEAHHTAYLVFSPSKSFVHLEPMSHELPCGHTQTVQAHYILNGGTLLGLKKLSFYYLIMAKGGIVRTGTHGLLVKQEDMKGHFSISIPVKSDIAPVARLLIYAVLPTGDVIGDSAKYDVENCLANKVDLSFSPSQSLPASHAHLRVTAAPQSVCALRAVDQSVLLMKPDAELSASSVYNLLPEKDLTGFPGPLNDQDDEDCINRHNVYINGITYTPVSSTNEKDMYSFLEDMGLKAFTNSKIRKPKMCPQLEQYEMHGPSELEGRGSIPENFFGVKEEEGLGSSEDLVVQIVEEPHTKLRKYFPETWIWDLVVVNSAGVAEVGVTVPDTITEWKAGAFCLSEDAGLGISSTASLRAFQPFFVELTMPYSVIRGEAFTLKATVLNYLPKCIRVSVQLEASPAFLAVPVEKEQAPHCICANGRQTVSWAVTPKSLGNVNFTVSAEALESQELCGTEVPSVPEHGRKDTVIKPLLVEPEGLEKETTFNSLLCPSGGEVSEELSLKLPPNVVEESARASVSVLGDILGSAMQNTQNLLQMPYGCGEQNMVLFAPNIYVLDYLNETQQLTPEIKSKAIGYLNTGYQRQLNYKHYDGSYSTFGERYGRNQGNTWLTAFVLKTFAQARAYIFIDEAHITQALIWLSQRQKDNGCFRSSGSLLNNAIKGGVEDEVTLSAYITIALLEIPLTVTHPVVRNALFCLESAWKTAQEGDHGSHVYTKALLAYAFALAGNQDKRKEVLKSLNEEAVKKDNSVHWERPQKPKAPVGHFYEPQAPSAEVEMTSYVLLAYLTAQPAPTSEDLTSATNIVKWITKQQNAQGGFSSTQDTVVALHALSKYGAATFTRTGKAAQVTIQSSGTFSSKFQVDNNNRLLLQQVSLPELPGEYSMKVTGEGCVYLQTSLKYNILPEKEEFPFALGVQTLPQTCDEPKAHTSFQISLSVSYTGSRSASNMAIVDVKMVSGFIPLKPTVKMLERSNHVSRTEVSSNHVLIYLDKVSNQTLSLFFTVLQDVPVRDLKPAIVKVYDYYETDEFAIAEYNAPCSKDLGNADYKDDDDKGASHHHHHH
As to B2, the Protease Inhibition (% of WT); Protease Mixtures, IGD Substrate was 220 % of WT.

B3: Variant A2M, bait region SEQ ID NO 135, P01023 24-1474 (protein)
chain: SVSGKPQYMVLVPSLLHTETTEKGCVLLSYLNETVTVSASLESVRGNRSLFTDLEAENDVLHCVAFAVPKSSSNEEVMFLTVQVKGPTQEFKKRTTVMVKNEDSLVFVQTDKSIYKPGQTVKFRVVSMDENFHPLNELIPLVYIQDPKGNRIAQWQSFQLEGGLKQFSFPLSSEPFQGSYKVVVQKKSGGRTEHPFTVEEFVLPKFEVQVTVPKIITILEEEMNVSVCGLYTYGKPVPGHVTVSICRKYSDASDCHGEDSQAFCEKFSGQLNSHGCFYQQVKTKVFQLKRKEYEMKLHTEAQIQEEGTVVELTGRQSSEITRTITKLSFVKVDSHFRQGIPFFGQVRLVDGKGVPIPNKVIFIRGNEANYYSNATTDEHGLVQFSINTTNVMGTSLTVRVNYKDRSPCYGYQWVSEEHEEAHHTAYLVFSPSKSFVHLEPMSHELPCGHTQTVQAHYILNGGTLLGLKKLSFYYLIMAKGGIVRTGTHGLLVKQEDMKGHFSISIPVKSDIAPVARLLIYAVLPTGDVIGDSAKYDVENCLANKVDLSFSPSQSLPASHAHLRVTAAPQSVCALRAVDQSVLLMKPDAELSASSVYNLLPEKDLTGFPGPLNDQDDEDCINRHNVYINGITYTPVSSTNEKDMYSFLEDMGLKAFTNSKIRKPKMCPQLEQYEMHGPIPENFFGVSELEGRGSSEDLVVQIKEEEGLGSVEEPHTKLRKYFPETWIWDLVVVNSAGVAEVGVTVPDTITEWKAGAFCLSEDAGLGISSTASLRAFQPFFVELTMPYSVIRGEAFTLKATVLNYLPKCIRVSVQLEASPAFLAVPVEKEQAPHCICANGRQTVSWAVTPKSLGNVNFTVSAEALESQELCGTEVPSVPEHGRKDTVIKPLLVEPEGLEKETTFNSLLCPSGGEVSEELSLKLPPNVVEESARASVSVLGDILGSAMQNTQNLLQMPYGCGEQNMVLFAPNIYVLDYLNETQQLTPEIKSKAIGYLNTGYQRQLNYKHYDGSYSTFGERYGRNQGNTWLTAFVLKTFAQARAYIFIDEAHITQALIWLSQRQKDNGCFRSSGSLLNNAIKGGVEDEVTLSAYITIALLEIPLTVTHPVVRNALFCLESAWKTAQEGDHGSHVYTKALLAYAFALAGNQDKRKEVLKSLNEEAVKKDNSVHWERPQKPKAPVGHFYEPQAPSAEVEMTSYVLLAYLTAQPAPTSEDLTSATNIVKWITKQQNAQGGFSSTQDTVVALHALSKYGAATFTRTGKAAQVTIQSSGTFSSKFQVDNNNRLLLQQVSLPELPGEYSMKVTGEGCVYLQTSLKYNILPEKEEFPFALGVQTLPQTCDEPKAHTSFQISLSVSYTGSRSASNMAIVDVKMVSGFIPLKPTVKMLERSNHVSRTEVSSNHVLIYLDKVSNQTLSLFFTVLQDVPVRDLKPAIVKVYDYYETDEFAIAEYNAPCSKDLGNADYKDDDDKGASHHHHHH
With B3, the Protease Inhibition (% of WT); Protease Mixtures, IGD Substrate is 140 % of WT.

B4: Variant A2M, bait region SEQ ID NO 136, P01023 24-1474 (protein)
chain: SVSGKPQYMVLVPSLLHTETTEKGCVLLSYLNETVTVSASLESVRGNRSLFTDLEAENDVLHCVAFAVPKSSSNEEVMFLTVQVKGPTQEFKKRTTVMVKNEDSLVFVQTDKSIYKPGQTVKFRVVSMDENFHPLNELIPLVYIQDPKGNRIAQWQSFQLEGGLKQFSFPLSSEPFQGSYKVVVQKKSGGRTEHPFTVEEFVLPKFEVQVTVPKIITILEEEMNVSVCGLYTYGKPVPGHVTVSICRKYSDASDCHGEDSQAFCEKFSGQLNSHGCFYQQVKTKVFQLKRKEYEMKLHTEAQIQEEGTVVELTGRQSSEITRTITKLSFVKVDSHFRQGIPFFGQVRLVDGKGVPIPNKVIFIRGNEANYYSNATTDEHGLVQFSINTTNVMGTSLTVRVNYKDRSPCYGYQWVSEEHEEAHHTAYLVFSPSKSFVHLEPMSHELPCGHTQTVQAHYILNGGTLLGLKKLSFYYLIMAKGGIVRTGTHGLLVKQEDMKGHFSISIPVKSDIAPVARLLIYAVLPTGDVIGDSAKYDVENCLANKVDLSFSPSQSLPASHAHLRVTAAPQSVCALRAVDQSVLLMKPDAELSASSVYNLLPEKDLTGFPGPLNDQDDEDCINRHNVYINGITYTPVSSTNEKDMYSFLEDMGLKAFTNSKIRKPKMCPQLEQYEMHGPKEEEGLGSIPENFFGVSELEGRGSEGEGEGEGVEEPHTKLRKYFPETWIWDLVVVNSAGVAEVGVTVPDTITEWKAGAFCLSEDAGLGISSTASLRAFQPFFVELTMPYSVIRGEAFTLKATVLNYLPKCIRVSVQLEASPAFLAVPVEKEQAPHCICANGRQTVSWAVTPKSLGNVNFTVSAEALESQELCGTEVPSVPEHGRKDTVIKPLLVEPEGLEKETTFNSLLCPSGGEVSEELSLKLPPNVVEESARASVSVLGDILGSAMQNTQNLLQMPYGCGEQNMVLFAPNIYVLDYLNETQQLTPEIKSKAIGYLNTGYQRQLNYKHYDGSYSTFGERYGRNQGNTWLTAFVLKTFAQARAYIFIDEAHITQALIWLSQRQKDNGCFRSSGSLLNNAIKGGVEDEVTLSAYITIALLEIPLTVTHPVVRNALFCLESAWKTAQEGDHGSHVYTKALLAYAFALAGNQDKRKEVLKSLNEEAVKKDNSVHWERPQKPKAPVGHFYEPQAPSAEVEMTSYVLLAYLTAQPAPTSEDLTSATNIVKWITKQQNAQGGFSSTQDTVVALHALSKYGAATFTRTGKAAQVTIQSSGTFSSKFQVDNNNRLLLQQVSLPELPGEYSMKVTGEGCVYLQTSLKYNILPEKEEFPFALGVQTLPQTCDEPKAHTSFQISLSVSYTGSRSASNMAIVDVKMVSGFIPLKPTVKMLERSNHVSRTEVSSNHVLIYLDKVSNQTLSLFFTVLQDVPVRDLKPAIVKVYDYYETDEFAIAEYNAPCSKDLGNADYKDDDDKGASHHHHHH
On to B4, for which the Protease Inhibition (% of WT); Protease Mixtures, Collagen Substrate was 170 % of WT and the Protease Inhibition (% of WT); Protease Mixtures, IGD Substrate is 215 % of WT.

Source of the values: patent US20230250154A1.
